T1: NHERF3_4, Q5T2W1
T1 sequence (Q5T2W1 373-468, limits assumed, looked up): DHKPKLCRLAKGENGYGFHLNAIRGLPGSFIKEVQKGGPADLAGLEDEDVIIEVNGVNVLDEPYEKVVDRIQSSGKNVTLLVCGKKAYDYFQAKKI

T2: MPDZ_12, O75970
T2 sequence (O75970 1857-1958, limits assumed, looked up): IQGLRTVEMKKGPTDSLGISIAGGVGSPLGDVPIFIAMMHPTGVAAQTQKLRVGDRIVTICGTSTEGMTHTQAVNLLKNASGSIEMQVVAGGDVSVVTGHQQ

T3: DLG3_2, Q92796
T3 sequence (Q92796 221-321, limits assumed, looked up): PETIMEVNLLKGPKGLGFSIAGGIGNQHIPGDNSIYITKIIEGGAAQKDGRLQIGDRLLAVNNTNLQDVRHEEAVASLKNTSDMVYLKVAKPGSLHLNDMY

T4: PARD3B_1, Q8TEW8
T4 sequence (Q8TEW8 196-299, limits assumed, looked up): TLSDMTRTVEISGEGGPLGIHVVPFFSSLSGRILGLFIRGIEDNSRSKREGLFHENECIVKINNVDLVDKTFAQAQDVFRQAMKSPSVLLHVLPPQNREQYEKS

T5: RHPN1, Q8TCX5
T5 sequence (Q8TCX5 508-602, limits assumed, looked up): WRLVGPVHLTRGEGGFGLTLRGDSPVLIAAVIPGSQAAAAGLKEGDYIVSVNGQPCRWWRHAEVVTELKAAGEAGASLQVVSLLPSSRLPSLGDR

T6: DVL3, Q92997
T6 sequence (Q92997 244-331, limits assumed, looked up): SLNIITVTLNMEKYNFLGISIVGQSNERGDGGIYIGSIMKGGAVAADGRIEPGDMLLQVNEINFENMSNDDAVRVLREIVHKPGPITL

T7: SNTG2, Q9NY99
T7 sequence (Q9NY99 68-166, limits assumed, looked up): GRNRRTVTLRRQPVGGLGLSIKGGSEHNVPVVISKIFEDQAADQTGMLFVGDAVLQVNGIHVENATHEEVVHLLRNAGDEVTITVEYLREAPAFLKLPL

T8: DLG3_1, Q92796
T8 sequence (Q92796 125-227, limits assumed, looked up): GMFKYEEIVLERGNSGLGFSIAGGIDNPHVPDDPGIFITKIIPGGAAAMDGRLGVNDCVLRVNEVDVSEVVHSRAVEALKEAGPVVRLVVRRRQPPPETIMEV

T9: APBA2_1, Q99767
T9 sequence (Q99767 563-664, limits assumed, looked up): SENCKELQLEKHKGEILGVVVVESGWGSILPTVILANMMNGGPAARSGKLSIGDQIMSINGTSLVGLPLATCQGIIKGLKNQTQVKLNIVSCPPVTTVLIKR

T10: SHANK1, Q9Y566
T10 sequence (Q9Y566 658-767, limits assumed, looked up): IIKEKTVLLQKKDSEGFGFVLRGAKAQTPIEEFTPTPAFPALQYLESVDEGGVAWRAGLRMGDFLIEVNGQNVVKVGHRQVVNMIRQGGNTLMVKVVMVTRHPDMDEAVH


What follows are binders tested against GRID2IP_2, A4D2P6 (assay: holdup assay). Settings: plain residues with an end cap or a label only (N-terminal biotin on a linker: ado-ado).
GRID2IP_2, A4D2P6, sequence (A4D2P6 272-370): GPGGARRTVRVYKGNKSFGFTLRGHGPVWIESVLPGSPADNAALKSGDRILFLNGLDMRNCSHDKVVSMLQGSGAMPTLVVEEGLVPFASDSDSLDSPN
Set-up: key: below the threshold = too weak to quantify, mostly under pKd 3.1 to 4

pKd	Binder
4.48	SRPTKGPTLL [PLEKHH2, Q8IVE3]
3.91	PELESKESVL [SLC1A4, P43007]

Each binder was assayed against GRIP2_4, Q9C0E4 (assay: holdup assay). Settings: plain residues with an end cap or a label only (N-terminal biotin on a linker: ado-ado).
GRIP2_4, Q9C0E4, sequence (Q9C0E4 446-548): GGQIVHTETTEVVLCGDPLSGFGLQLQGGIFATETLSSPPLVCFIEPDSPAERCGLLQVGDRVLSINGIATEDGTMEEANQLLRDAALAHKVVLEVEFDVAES
Set-up: key: below the threshold = too weak to quantify, mostly under pKd 3.1 to 4

pKd	Binder
below the threshold	SRPTKGPTLL [PLEKHH2, Q8IVE3]
below the threshold	PELESKESVL [SLC1A4, P43007]

What follows are binders tested against T1, NHERF3_4, Q5T2W1 (assay: holdup assay). Settings: plain residues with an end cap or a label only (N-terminal biotin on a linker: ado-ado).
Set-up: key: below the threshold = too weak to quantify, mostly under pKd 3.1 to 4

pKd	Binder
3.65	SRPTKGPTLL [PLEKHH2, Q8IVE3]
below the threshold	PELESKESVL [SLC1A4, P43007]

What follows are binders tested against MAST1, Q9Y2H9 (assay: holdup assay). Settings: plain residues with an end cap or a label only (N-terminal biotin on a linker: ado-ado).
MAST1, Q9Y2H9, sequence (Q9Y2H9 962-1065): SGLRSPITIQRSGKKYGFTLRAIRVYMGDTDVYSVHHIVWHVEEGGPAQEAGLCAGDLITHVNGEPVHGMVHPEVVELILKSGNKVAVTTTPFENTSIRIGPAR
Set-up: key: below the threshold = too weak to quantify, mostly under pKd 3.1 to 4

pKd	Binder
below the threshold	SRPTKGPTLL [PLEKHH2, Q8IVE3]
4.71	PELESKESVL [SLC1A4, P43007]

These binders were tested against T2, MPDZ_12, O75970 (assay: holdup assay). Settings: plain residues with an end cap or a label only (N-terminal biotin on a linker: ado-ado).
Set-up: key: below the threshold = too weak to quantify, mostly under pKd 3.1 to 4

pKd	Binder
below the threshold	SRPTKGPTLL [PLEKHH2, Q8IVE3]
below the threshold	PELESKESVL [SLC1A4, P43007]

What follows are binders tested against FRMPD2_1, Q68DX3 (assay: holdup assay). Settings: plain residues with an end cap or a label only (N-terminal biotin on a linker: ado-ado).
FRMPD2_1, Q68DX3, sequence (Q68DX3 770-861): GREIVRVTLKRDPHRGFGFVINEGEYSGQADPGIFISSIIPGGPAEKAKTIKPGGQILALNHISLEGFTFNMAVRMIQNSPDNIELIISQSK
Set-up: key: below the threshold = too weak to quantify, mostly under pKd 3.1 to 4

pKd	Binder
below the threshold	SRPTKGPTLL [PLEKHH2, Q8IVE3]
below the threshold	PELESKESVL [SLC1A4, P43007]

These binders were tested against GORASP2, Q9H8Y8 (assay: holdup assay). Settings: plain residues with an end cap or a label only (N-terminal biotin on a linker: ado-ado).
Set-up: key: below the threshold = too weak to quantify, mostly under pKd 3.1 to 4

pKd	Binder
3.6	SRPTKGPTLL [PLEKHH2, Q8IVE3]
below the threshold	PELESKESVL [SLC1A4, P43007]

Each binder was assayed against T3, DLG3_2, Q92796 (assay: holdup assay). Settings: plain residues with an end cap or a label only (N-terminal biotin on a linker: ado-ado).
Set-up: key: below the threshold = too weak to quantify, mostly under pKd 3.1 to 4

pKd	Binder
below the threshold	SRPTKGPTLL [PLEKHH2, Q8IVE3]
3.79	PELESKESVL [SLC1A4, P43007]

The binders below were run against T4, PARD3B_1, Q8TEW8 (assay: holdup assay). Settings: plain residues with an end cap or a label only (N-terminal biotin on a linker: ado-ado).
Set-up: key: below the threshold = too weak to quantify, mostly under pKd 3.1 to 4

pKd	Binder
4.41	SRPTKGPTLL [PLEKHH2, Q8IVE3]
4.21	PELESKESVL [SLC1A4, P43007]

These binders were tested against T5, RHPN1, Q8TCX5 (assay: holdup assay). Settings: plain residues with an end cap or a label only (N-terminal biotin on a linker: ado-ado).
Set-up: key: below the threshold = too weak to quantify, mostly under pKd 3.1 to 4

pKd	Binder
below the threshold	SRPTKGPTLL [PLEKHH2, Q8IVE3]
4.49	PELESKESVL [SLC1A4, P43007]

These binders were tested against LNX1_1, Q8TBB1 (assay: holdup assay). Settings: plain residues with an end cap or a label only (N-terminal biotin on a linker: ado-ado).
LNX1_1, Q8TBB1, sequence (Q8TBB1 261-371): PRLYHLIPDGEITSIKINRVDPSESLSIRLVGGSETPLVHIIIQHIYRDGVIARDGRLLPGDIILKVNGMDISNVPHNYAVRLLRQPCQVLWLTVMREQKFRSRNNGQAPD
Set-up: key: below the threshold = too weak to quantify, mostly under pKd 3.1 to 4

pKd	Binder
below the threshold	SRPTKGPTLL [PLEKHH2, Q8IVE3]
below the threshold	PELESKESVL [SLC1A4, P43007]

What follows are binders tested against Inadl_8, Q8NI35 (assay: holdup assay). Settings: plain residues with an end cap or a label only (N-terminal biotin on a linker: ado-ado).
Inadl_8, Q8NI35, sequence (Q8NI35 1425-1530): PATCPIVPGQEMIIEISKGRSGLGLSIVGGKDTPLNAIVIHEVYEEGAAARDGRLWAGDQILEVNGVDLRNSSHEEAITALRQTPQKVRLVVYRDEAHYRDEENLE
Set-up: key: below the threshold = too weak to quantify, mostly under pKd 3.1 to 4

pKd	Binder
3.61	SRPTKGPTLL [PLEKHH2, Q8IVE3]
below the threshold	PELESKESVL [SLC1A4, P43007]

These binders were tested against T6, DVL3, Q92997 (assay: holdup assay). Settings: plain residues with an end cap or a label only (N-terminal biotin on a linker: ado-ado).
Set-up: key: below the threshold = too weak to quantify, mostly under pKd 3.1 to 4

pKd	Binder
below the threshold	SRPTKGPTLL [PLEKHH2, Q8IVE3]
below the threshold	PELESKESVL [SLC1A4, P43007]

What follows are binders tested against PARD3_3, Q8TEW0 (assay: holdup assay). Settings: plain residues with an end cap or a label only (N-terminal biotin on a linker: ado-ado).
PARD3_3, Q8TEW0, sequence (Q8TEW0 582-685): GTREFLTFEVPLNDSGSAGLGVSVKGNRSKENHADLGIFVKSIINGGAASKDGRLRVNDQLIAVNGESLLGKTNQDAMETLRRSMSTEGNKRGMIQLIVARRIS
Set-up: key: below the threshold = too weak to quantify, mostly under pKd 3.1 to 4

pKd	Binder
below the threshold	SRPTKGPTLL [PLEKHH2, Q8IVE3]
3.87	PELESKESVL [SLC1A4, P43007]

Each binder was assayed against T7, SNTG2, Q9NY99 (assay: holdup assay). Settings: plain residues with an end cap or a label only (N-terminal biotin on a linker: ado-ado).
Set-up: key: below the threshold = too weak to quantify, mostly under pKd 3.1 to 4

pKd	Binder
below the threshold	SRPTKGPTLL [PLEKHH2, Q8IVE3]
4.09	PELESKESVL [SLC1A4, P43007]

What follows are binders tested against LIMK2, P53671 (assay: holdup assay). Settings: plain residues with an end cap or a label only (N-terminal biotin on a linker: ado-ado).
LIMK2, P53671, sequence (P53671 143-248): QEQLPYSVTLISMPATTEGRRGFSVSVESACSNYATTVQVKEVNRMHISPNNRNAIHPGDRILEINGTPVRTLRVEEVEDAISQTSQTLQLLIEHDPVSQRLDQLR
Set-up: key: below the threshold = too weak to quantify, mostly under pKd 3.1 to 4

pKd	Binder
below the threshold	SRPTKGPTLL [PLEKHH2, Q8IVE3]
below the threshold	PELESKESVL [SLC1A4, P43007]

Each binder was assayed against GOPC, Q9HD26 (assay: holdup assay). Settings: plain residues with an end cap or a label only (N-terminal biotin on a linker: ado-ado).
Set-up: key: below the threshold = too weak to quantify, mostly under pKd 3.1 to 4

pKd	Binder
below the threshold	SRPTKGPTLL [PLEKHH2, Q8IVE3]
3.74	PELESKESVL [SLC1A4, P43007]

What follows are binders tested against TJP1_2, Q07157 (assay: holdup assay). Settings: plain residues with an end cap or a label only (N-terminal biotin on a linker: ado-ado).
TJP1_2, Q07157, sequence (Q07157 181-274): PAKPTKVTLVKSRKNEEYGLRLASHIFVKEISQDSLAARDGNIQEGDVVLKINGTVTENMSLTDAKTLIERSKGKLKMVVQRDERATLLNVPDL
Set-up: key: below the threshold = too weak to quantify, mostly under pKd 3.1 to 4

pKd	Binder
below the threshold	SRPTKGPTLL [PLEKHH2, Q8IVE3]
below the threshold	PELESKESVL [SLC1A4, P43007]

What follows are binders tested against T8, DLG3_1, Q92796 (assay: holdup assay). Settings: plain residues with an end cap or a label only (N-terminal biotin on a linker: ado-ado).
Set-up: key: below the threshold = too weak to quantify, mostly under pKd 3.1 to 4

pKd	Binder
below the threshold	SRPTKGPTLL [PLEKHH2, Q8IVE3]
below the threshold	PELESKESVL [SLC1A4, P43007]

The binders below were run against SCRIB_1, Q14160 (assay: holdup assay). Settings: plain residues with an end cap or a label only (N-terminal biotin on a linker: ado-ado).
SCRIB_1, Q14160, sequence (Q14160 718-814): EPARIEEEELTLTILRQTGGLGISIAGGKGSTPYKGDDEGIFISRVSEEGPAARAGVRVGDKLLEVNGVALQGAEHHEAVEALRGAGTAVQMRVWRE
Set-up: key: below the threshold = too weak to quantify, mostly under pKd 3.1 to 4

pKd	Binder
3.86	SRPTKGPTLL [PLEKHH2, Q8IVE3]
4.18	PELESKESVL [SLC1A4, P43007]

What follows are binders tested against LNX1_2, Q8TBB1 (assay: holdup assay). Settings: plain residues with an end cap or a label only (N-terminal biotin on a linker: ado-ado).
LNX1_2, Q8TBB1, sequence (Q8TBB1 371-470): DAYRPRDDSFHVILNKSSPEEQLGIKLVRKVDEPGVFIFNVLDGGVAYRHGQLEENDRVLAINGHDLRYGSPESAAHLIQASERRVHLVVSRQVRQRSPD
Set-up: key: below the threshold = too weak to quantify, mostly under pKd 3.1 to 4

pKd	Binder
below the threshold	SRPTKGPTLL [PLEKHH2, Q8IVE3]
below the threshold	PELESKESVL [SLC1A4, P43007]

The binders below were run against MAST2, Q6P0Q8 (assay: holdup assay). Settings: plain residues with an end cap or a label only (N-terminal biotin on a linker: ado-ado).
MAST2, Q6P0Q8, sequence (Q6P0Q8 1099-1202): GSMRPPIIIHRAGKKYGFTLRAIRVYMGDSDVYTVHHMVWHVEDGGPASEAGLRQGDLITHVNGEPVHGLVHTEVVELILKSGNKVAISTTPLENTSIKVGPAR
Set-up: key: below the threshold = too weak to quantify, mostly under pKd 3.1 to 4

pKd	Binder
5.06	SRPTKGPTLL [PLEKHH2, Q8IVE3]
5.21	PELESKESVL [SLC1A4, P43007]

These binders were tested against T9, APBA2_1, Q99767 (assay: holdup assay). Settings: plain residues with an end cap or a label only (N-terminal biotin on a linker: ado-ado).
Set-up: key: below the threshold = too weak to quantify, mostly under pKd 3.1 to 4

pKd	Binder
below the threshold	SRPTKGPTLL [PLEKHH2, Q8IVE3]
below the threshold	PELESKESVL [SLC1A4, P43007]

Each binder was assayed against Inadl_6, Q8NI35 (assay: holdup assay). Settings: plain residues with an end cap or a label only (N-terminal biotin on a linker: ado-ado).
Inadl_6, Q8NI35, sequence (Q8NI35 1058-1167): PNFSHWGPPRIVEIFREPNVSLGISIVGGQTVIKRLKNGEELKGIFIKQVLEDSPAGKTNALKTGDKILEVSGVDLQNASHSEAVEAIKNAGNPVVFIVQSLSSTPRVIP
Set-up: key: below the threshold = too weak to quantify, mostly under pKd 3.1 to 4

pKd	Binder
below the threshold	SRPTKGPTLL [PLEKHH2, Q8IVE3]
3.57	PELESKESVL [SLC1A4, P43007]

What follows are binders tested against T10, SHANK1, Q9Y566 (assay: holdup assay). Settings: plain residues with an end cap or a label only (N-terminal biotin on a linker: ado-ado).
Set-up: key: below the threshold = too weak to quantify, mostly under pKd 3.1 to 4

pKd	Binder
below the threshold	SRPTKGPTLL [PLEKHH2, Q8IVE3]
below the threshold	PELESKESVL [SLC1A4, P43007]

The binders below were run against SCRIB_2, Q14160 (assay: holdup assay). Settings: plain residues with an end cap or a label only (N-terminal biotin on a linker: ado-ado).
SCRIB_2, Q14160, sequence (Q14160 857-960): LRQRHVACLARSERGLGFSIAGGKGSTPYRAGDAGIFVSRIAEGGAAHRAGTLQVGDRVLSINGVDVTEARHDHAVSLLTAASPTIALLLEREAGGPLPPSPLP
Set-up: key: below the threshold = too weak to quantify, mostly under pKd 3.1 to 4

pKd	Binder
below the threshold	SRPTKGPTLL [PLEKHH2, Q8IVE3]
below the threshold	PELESKESVL [SLC1A4, P43007]

Each binder was assayed against IL16_3, Q14005 (assay: holdup assay). Settings: plain residues with an end cap or a label only (N-terminal biotin on a linker: ado-ado).
IL16_3, Q14005, sequence (Q14005 1107-1207): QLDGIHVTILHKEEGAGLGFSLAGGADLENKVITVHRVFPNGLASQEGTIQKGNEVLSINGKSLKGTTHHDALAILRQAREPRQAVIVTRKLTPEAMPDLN
Set-up: key: below the threshold = too weak to quantify, mostly under pKd 3.1 to 4

pKd	Binder
below the threshold	SRPTKGPTLL [PLEKHH2, Q8IVE3]
below the threshold	PELESKESVL [SLC1A4, P43007]
